From publication PMC5379955

Molecular target: ROD (human) (UniProt P50748)
Assay: AUC

stoichiometry N: 2
Substance: ROD, P50748 1-2209
